Results published in article PMC7380959 (Science Advances, 2020).

Target: H77 E1E2 (full-length E1E2, wild type) (Hepatitis C virus genotype 1a, isolate …)
Experiment: ELISA

- binding result: binds
B1: 212.1.1 IgG (antibody, V domains shown)
VH: QVQLVQSGAEVKKPGSSVKVSCKASGGTLSSYGISWVRQAPGQGLEWLGGSIPILGTSVYAQKFQGRVTMTADESTSTAHMELSSLRFDDTAIYYCAGVREGMAAISGKNAFDIWGQGTMVTVSS
VL: DIQMTQSPSSLSASVGDRVTITCRASQGISNYLAWYQQKPGKVPKLLIYAASTLQSGVPSRFSGSGYGTEFTLTISSLQPEDVATYYCQQHDNLPLTFGGGTKVEIK
